# Assay results: the DeepSol protein solubility set
# Experiment: soluble on expression in E. coli; label from the status in PepcDB or PDB records
row,Sequence,soluble on expression in E. coli
1,MDPDKKKMFEVIIKKIQQQSSALEEAMKAQKPKVDCSMSREMCSPSGLIIIMERIYEKEFLADMARLNVLPVDVLTRVSAQDSIATEEAKGRLLNESRDVLSEWLDHNHGKDARDHSVFDDLAKRRIFYLAGPFLQSQWHLECSVISSSAVPAARNIVWNDHLRIRRDAAVAAAAAVNNTAGLADMDQGTRIELPKSKHQWSHQDASRHIKFVKSSVGKFFKKKIIQKFSTGGSQNLFFFYTSVCVQDIALNCTSPFWEINNEYNPVIKFSKIRFPADISVINGFRMPFLKM,not soluble
2,MTSNDSSENLRNRLAEKMAGDITLSEKPGESLKKWRLNFEISQTDIANYLKVSPSVISDYESGRRKSPGTLIVRKIVESLLEIDLERGGKKIHTYETMLNAESGSKSIYSTYEYTLPIQLAKLVNLIEGDIVYKGIEKPLYGFSVVDSQRAILELSSHEFQKLYGWSTDRAMIFTKVSTGKSPLVAIRVTNLKPGAVVLHGLRKEEVESVAVKMAEVDRVPLVATTMDLDQIVQLLKKYSQYYARE,not soluble
3,MAPTNLTKKPSQYKQSSRKGKKAWRKNIDLSDVEQYMEKKIDHEITHGTSDITSLQNDALFHVDVEGDEILKNKLIKRKQIKKVLKSKEILDAVKTNSKIAALNHHKNSSGNPNKIQGVSKHELKKLMALAGRVHGESKIKNRVAKDGLVKTTAGDLWGEESNSKKQKVKLPSGIKLDVEKKDQIPEELLKKSTTSWSTASVRPSTLDIEPIAVKEFTEIPHAGKSYNPNNKAWSELINKEYKEEKAREDERIALEKYKERIRHLMETLDDNEEEESSSNEEEEEEEEENENENESTQCSGSDKEIKLSINKPVKNKKKTKYQRNKAKRHEEKVKLQQELKELRQRVKDLEEVINSEETEILSAIESDSNKVKKSKKNKKHKLGTKYSVIDERLEIKFSDELSDSLRKLKPEGNLLYDTVRKLQSSGKVETRVPVRKGRKYKQKITEKWTHKDFK,not soluble
4,MLLNLQKILKKWVICTLPKPNVTFLAIKFFNLKNEFLFFSKFCKKQPKFEILNVSYCSQNFQKYRIQYLNYFKISTFFSIKKSHIQV,not soluble
5,MGSDKIHHHHHHLKAAIVTHLDQAPIYGDFPAPKPAPKQVLITVLASSVNQRVRSQADGSHYTKTPELPFIPGLDGVGRTSDGQLVYFLTRDPKFGALAEQTVTQQQLMFPLPEDADPAQIAASVNPAMAGWMALRVKAGQVVGKRVLVLGATGAAGTAAVQIAKTMGAAHVAGVGRNPDKLAALSDLGADTTVQLGDTAALAALPPADIVLDFLWGAPSATVMMTLLKARRDHAAKLIWIEIGGAAGPTLSLPAAALRSTGLTLVGSGQGSLTLADYQRELPALFTALTAGKFVTPTTVLSLSQVHDHWQDRGAARLVFQP,not soluble
6,MGSDKIHHHHHHWIAFAGNMNTTIDNESDELKAIDYKDLEVKEKLGEGASGEVYRAMYGGSDVALKLFRGAATSDGLPEDEIKVMQRLGPDENSVSILGSVVGAPEGQLAALLPLVPPSFTILGNPPTFDSCTRDTYPKDKTFSLRTAIEILEAIARVCAHLHSRGLSHGDLYAHNILVQIGVDGEPTRTKLSDYGAASFSSVLKPHQVALLERIEVRAFGALAEELMDRLEEADAEGVAHRLSSVIVKSMRADVASRPSFSEIHQEMVAFLKEV,not soluble
7,MSLAQTPVMDVGTKSYISHQEQKMTATVEQIESWIVDVPTIRPHKLSMTTMGCQSLVIVRLTRSDGICGIGEATTIGGLSYGVESPEAISSAITHYLTPLLKGQPADNLNALTARMNGAIKGNTFAKSAIETALLDAQGKALGLPVSALLGGALQTALPVLWTLASGDTAKDIAEGEKLLAEGRHRAFKLKIGARELATDLRHTRAIVEALGDRASIRVDVNQAWDAATGAKGCRELAAMGVDLIEQPVSAHDNAALVRLSQQIETAILADEAVATAYDGYQLAQQGFTGAYALKIAKAGGPNSVLALARVAQAAGIGLYGGTMLEGTVGTVASLHAWSTLPLQWGTEMFGPLLLKDDIVSVPLTFADGQVALPQTPGLGVELDEDKLHFYTRQEGHHHHHH,soluble
8,MTVAQLIDIDAKKTKTSNEVYQTSTMLALLDGIYDGVISFEDLKKHGDFGIGTFDQLDGEMIAFDNEFYHLRSDGSAEKVEPEETTPFATVTFFEKEMSYTVERPMNREEVEALLHELMPSKNLFYGIRMDGTFREVRTRTVPRQEKPYTPLVEVTKSQPIFSFENTEGTLAGFWTPDYAQGIGVAGFHLHYIDDERSGGGHVFDYVIENCTIQICQKAHMHLALPETADFMAAALSRENLEDNIATAEGAE,not soluble
9,MERKLGISLYPEHSTKEKDMAYISAAARHGFSRIFTCLLSVNRPKEEIVAEFKEIINHAKDNNMEVILDVAPAVFDQLGISYSDLSFFAELGADGIRLDVGFDGLTEAKMTNNPYGLKIELNVSNDIAYLENILSHQANKSALIGCHNFYPQKFTGLPYDYFIRCSERFKKHGIRSAAFITSHVANIGPWDINDGLCTLEEHRNLPIEVQAKHLWATGLIDDVIIGNAYASEEELEKLGNLNRYMLQLKVHFVDEATEVEKRATLQELHVRRGDITEYMVRSTEVRKKYKDYDFPVRESVLQERGQVVIGNNSFGKYKGELQIILKEMPIDERKNIVGTIAEEELFLLDYVGAWTQFTCVE,soluble
10,MKKSLALLAFATLLPSAWTHADSAYINYRHQYAESTRMHADRVKFGSRLDSGWGFEGELKYKTAGDRQDVAFDNTVGNGHELTTSYQYRLNDKWMLTPSLALESIEKSTAYKMGLKLGYKVNDQLSVSGRYRYDSIKLDRDKVNHDMPDNQMDDQSINRYDVWVNYASKGPWAYEYQFTYFDADYIRYDNGRTDYEQNAAFKYRWDKHWVPFFEVGDIKVDSEDDKRQLRLRVGVQYNFL,not soluble
11,MERTVKLRVKVDYKTYSALKEVEKEYREVLEEAINYGLSNKTTSFTRIKAGVYKTEREKHKDLPSHYIYTACEDASERLDSFEKLKRRGRSYTEKPSVRRVTIHLDDHLWKFNLDRISISTKRSRILISPTFPKIFWRYYNKGWRIASEARFKLLKGNVVEFYVIFKRDEPKPYEPKGFISVDLNENSVSVLVDGKPMLLETNTKRITLGYEYRRKAITTGKSTKDREVRRKLKRLRERNKKVDIRRKLAKLIVKEAFESRSVIVLEDLPRRTPEHMIKDVKDSQLRLRIYRAAFSSMKNAIIEKAREFGVPVVLVNPSHTSTVCPVHGTKIVYQLDGGDAPRVGVCEKGKEKWHRDVVALYNLARRAGDVSPVPLGSKESHDPPKRWLRAKSLHSIMNDHKMIEMKVLEHHHHHH,not soluble
12,GSDLPIDPNEPTYCLCNQVSYGEMIGCDNDECPIEWFHFSCVGLNHKPKGKWYCPKCRGENE,soluble
13,MGSDKIHHHHHHMNVENQSLSDIEIILSHRYDNGADYWTTPDKRLIKGSPFSTLDSVLYLLELGVNPDDTLLKECADLIFSTWREDGRFKLYPNGGIYPCHTANAANVLCHMGYASDIRMQKTFQHFLDTQYTDGGWRCNKFSFGRGPETEYSNPLPTLNILNAFRFSNYLNKESKLDKAVDFLLDHWTIKKPIGPCHYGIGTLFMQVEYPFRNYNLFLYVYVLSFYSRAKKDKRFLEALKILESKMIGNKIVVERVVPKLSKLSFCKKGESSEIATTHYYEILKNLDK,not soluble
14,MPTPKAFALLGPTAGGKTALALKIAETLPVEIISLDSALVYRDMDIGTAKPSASERAFVPHHLIDIIPPTESYSAARFVEDCTRLVGEISSRGRFALIVGGTMMYFRALTQGLNDLPEADACLRADLDEQKQMYGLDFLYRTLQKVDPETACRLKPNDSQRIGRALEVYYLTGKPMSTHLGSLTSHTLPFDLHTAALIPENRARLHENIALRFHLMLEQGFIGEVENLRRRYPGLTAYSPAIRCVGYRQAWKYLDGKTDFPAFVEKGIAATRQLAKRQLTWLRKTPLDCVADPFSDCTSCTRLIEAAKRFFGA,not soluble
15,MSLGKLSILSKRKYTMKNQIQFSTFNFKDLPVRVILDPKGEFWFCGTDVCHILGYTNSRKALQDHCKQGGVTKRYTPTKSADQEMTFINEPNLYRLIIKSRKPEAEPFEAWVFEEVLPQIRKTGKYQLQPQQLALPEPEKKFSFEFTEYELQQLVWLWFAFMRGIVTFQHIEKAFKALGSNMSGDIYGQAYEYLSVYAQQTKSEGHHHHHH,not soluble
16,SQIPLCANLVPVPITNATLDRITGKWFYIASAFRNEEYNKSVQEIQATFFYFTPNKTEDTIFLREYQTRQNQCFYNSSYLNVQRENGTVSRYEGGREHVAHLLFLRDTKTLMFGSYLDDEKNWGLSFYADKPETTKEQLGEFYEALDCLCIPRSDVMYTDWKKDKCEPLEKQHEKERKQEEGES,soluble
17,NTDELMRAVQPRVNPKLLYVIASTLRLYPLAKARLEIIRQTHITRGIDVHSIRGRWGLVLPLVVGLVDNAAQRARPLQRTGIGHSGPRTVLRPVPVMTHDVIIQVLAVCTTIAVCIWSIF,not soluble
18,MGSDKIHHHHHHMTEGKSMFVGFDYGSANCAIGVMIDDAVSLLPLSTHSDFMPSTLYAMDRELIAEAVYQGLPEHLKAEYSHLRSSQLMRAKLMRHELDLSPNEQAVFVGQAAIDAYLDMPEEGFYVRSPKSFLGANGLRVEQIALFEDIVTLMMQHVKTLADKALNAKSLSSASHAVIGRPVNFQGIGGEDSNQQAETILRLAATRSGFTDVRFLFEPLAAGMDFESNLSDDNTVLVVDVGGGTTDCSVVKMGPSYIKQQDRSPDCFGHSGQRIGGNDLDIALAMTGLMPSFGADTLMINGKPMPRTPFWNAVAVNDISAQRDFVSLPSRKLVEQLIKEAQQPELLVRLQKVQKNQMSYQVVREAEAAKISLSDNDTIQCSLDFIEKGLLVPLTAAQFEQAINDPLAKVEALMKQAMQTATAKAEQQDCDMPTTPDIVYVTGGTARSPAIYNKIASVYPNAKVVVGDHFGSVTAGLTRCAEKCL,not soluble
19,MKKLIVASLSLTFMLGGCASMNKEGVGTITGGVVGGLLGSQFGGGSGKVAAAGAGALLGAYLGGQIGKTMDKVDRLEMQRALETAPTGKAVAWSNPDTGYRYTVQPTRTYYNAQQPCREYITKAMIGGKTQQIYGKACRQADGSWRVVNLEHHHHHH,not soluble
20,MIRKALLFVEKNETWKKELQIAKSVETVRKRLGQSNLNACSPRKVPLLTVKHVAKQFEYDKIHKDGPVEKWRNIFWSDESKIVLLGGKGSRSYVRRPPRTEYNPRYTFKKFKNCLKGWAFCCLEHHHHHHH,not soluble
21,MGHHHHHHSHMPKAKKVDAVGPAADADITKPELVVPSEDPKTEEIESVEEKTVEKSTEKPVDKKGGRPVRGKKSPGSDEEAMDGEYEADEEEAALEPRRSTRGKRSYDQETGGRSVRKVVKKAKEVNKKPERAPSARGRGQKPAIGNDSTTEDGEEKKSGKNASDTDSDEEAKVVKRPTSGRMSGAPPSARMLALKKKNHDDSE,not soluble
22,MGSDKIHHHHHHMCQRPPARRATGPFPTLTASRAAARACTVTFQPNCARPCVRQRPEAAIDMAKTYNPAHADISPAARLAALGAGEAVDLGEYRVIRATHQDRPVFFAVRNAMDAIQKHHIEGAFYETEELDIIRRHFAPGETFIDLGANVGNHALYVAMYLEPAKVLCVEPNSLAYENLLANIVLNGVEETFDLSWLGFGVSCNVGDGFGITHWVHNLGGGKLIPRDGGTISLRSGDDILADTKADFIKIDVEGMEMDVLTSLENTVARDRPKIFVEVDNENRDAVLAWVDTHGYTTHETFKRYRDNENFLFVPESESET,not soluble
23,MSNGAWTDQENDLIVADYFAMLADDVSGRPYNKAEHRRGLLPLLNDRSEGSVEFKHQNISAVLKGLGEDWIPGYKPAFNFQMTLVDAVARWLALNPAWLGRHSGTRAPTGLAEVRPIWIGPPPTLSNQPPPQELEQMLHIARKFDVAARDERNRALGRAGEERVLAHERATLKSAGRDDLARNVRWVSEEDGDGAGYDIASFALDGSPRLIEVKTTNGWERTPFHISRNELAVAEARRSEWSLFRLWNFAREPKAFELHPPLGAHVSLTATTFQASLHLEHHHHHH,not soluble
